The source of these data is paper PMC4551919 (Nucleic Acids Research, 2015).

In assay [1] the target is T1, UPF1, full length (human, UniProt Q92900 1-1129).
T1 sequence: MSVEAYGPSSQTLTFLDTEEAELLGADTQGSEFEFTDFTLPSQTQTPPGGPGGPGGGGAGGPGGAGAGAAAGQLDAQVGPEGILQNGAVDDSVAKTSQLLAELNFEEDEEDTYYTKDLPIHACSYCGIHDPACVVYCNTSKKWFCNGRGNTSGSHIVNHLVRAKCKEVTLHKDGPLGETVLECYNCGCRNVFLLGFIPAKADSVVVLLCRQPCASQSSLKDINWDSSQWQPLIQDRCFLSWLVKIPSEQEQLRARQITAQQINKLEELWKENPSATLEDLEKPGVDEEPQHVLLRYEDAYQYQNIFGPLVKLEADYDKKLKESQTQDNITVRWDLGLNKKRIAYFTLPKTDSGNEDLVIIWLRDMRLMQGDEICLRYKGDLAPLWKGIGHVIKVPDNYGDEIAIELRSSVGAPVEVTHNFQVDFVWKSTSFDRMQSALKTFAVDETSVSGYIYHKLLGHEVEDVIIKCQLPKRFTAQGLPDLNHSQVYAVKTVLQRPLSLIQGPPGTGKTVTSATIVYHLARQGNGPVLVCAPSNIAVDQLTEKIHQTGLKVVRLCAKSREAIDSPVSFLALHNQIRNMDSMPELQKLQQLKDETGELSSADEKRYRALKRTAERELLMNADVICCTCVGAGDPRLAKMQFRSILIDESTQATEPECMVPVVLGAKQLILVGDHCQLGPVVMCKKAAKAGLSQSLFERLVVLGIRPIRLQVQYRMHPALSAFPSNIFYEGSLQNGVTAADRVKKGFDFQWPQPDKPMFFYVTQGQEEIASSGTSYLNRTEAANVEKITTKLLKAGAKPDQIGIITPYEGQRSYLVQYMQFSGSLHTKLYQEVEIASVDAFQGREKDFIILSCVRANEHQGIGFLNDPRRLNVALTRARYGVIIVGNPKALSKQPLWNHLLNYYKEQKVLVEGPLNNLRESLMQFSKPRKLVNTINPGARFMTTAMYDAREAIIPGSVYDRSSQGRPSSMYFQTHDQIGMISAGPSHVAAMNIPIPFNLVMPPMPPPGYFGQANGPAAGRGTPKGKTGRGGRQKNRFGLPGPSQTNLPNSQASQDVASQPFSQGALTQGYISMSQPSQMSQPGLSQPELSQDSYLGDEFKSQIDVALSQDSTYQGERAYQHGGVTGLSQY
Briefly: SEC.

Assay [2] has as its target SMG-1–9 complex (human | , UniProt Q96Q15;Q9H0W8). Description: MST.
For assay [3], the target named is SMG-1–8–9 complex (human | , UniProt Q96Q15;Q8ND04;Q9H0W8). Description: MST.
Assay [4] concerns the target T2, SMG-1, full length, SBP-tagged (human, UniProt Q96Q15 1-3661). Description: MST.
Assay [5] concerns the target SMG-1ΔC-8–9 complex (human | , UniProt Q96Q15;Q8ND04;Q9H0W8, deleted from the residues 2442 to 3591). Briefly: MST.
The target of assay [6] is T1, UPF1, full length. Description: cross-linking.
Assay [7] has as its target T3, SMG-8 (UniProt Q8ND04 1-991).
T3 sequence: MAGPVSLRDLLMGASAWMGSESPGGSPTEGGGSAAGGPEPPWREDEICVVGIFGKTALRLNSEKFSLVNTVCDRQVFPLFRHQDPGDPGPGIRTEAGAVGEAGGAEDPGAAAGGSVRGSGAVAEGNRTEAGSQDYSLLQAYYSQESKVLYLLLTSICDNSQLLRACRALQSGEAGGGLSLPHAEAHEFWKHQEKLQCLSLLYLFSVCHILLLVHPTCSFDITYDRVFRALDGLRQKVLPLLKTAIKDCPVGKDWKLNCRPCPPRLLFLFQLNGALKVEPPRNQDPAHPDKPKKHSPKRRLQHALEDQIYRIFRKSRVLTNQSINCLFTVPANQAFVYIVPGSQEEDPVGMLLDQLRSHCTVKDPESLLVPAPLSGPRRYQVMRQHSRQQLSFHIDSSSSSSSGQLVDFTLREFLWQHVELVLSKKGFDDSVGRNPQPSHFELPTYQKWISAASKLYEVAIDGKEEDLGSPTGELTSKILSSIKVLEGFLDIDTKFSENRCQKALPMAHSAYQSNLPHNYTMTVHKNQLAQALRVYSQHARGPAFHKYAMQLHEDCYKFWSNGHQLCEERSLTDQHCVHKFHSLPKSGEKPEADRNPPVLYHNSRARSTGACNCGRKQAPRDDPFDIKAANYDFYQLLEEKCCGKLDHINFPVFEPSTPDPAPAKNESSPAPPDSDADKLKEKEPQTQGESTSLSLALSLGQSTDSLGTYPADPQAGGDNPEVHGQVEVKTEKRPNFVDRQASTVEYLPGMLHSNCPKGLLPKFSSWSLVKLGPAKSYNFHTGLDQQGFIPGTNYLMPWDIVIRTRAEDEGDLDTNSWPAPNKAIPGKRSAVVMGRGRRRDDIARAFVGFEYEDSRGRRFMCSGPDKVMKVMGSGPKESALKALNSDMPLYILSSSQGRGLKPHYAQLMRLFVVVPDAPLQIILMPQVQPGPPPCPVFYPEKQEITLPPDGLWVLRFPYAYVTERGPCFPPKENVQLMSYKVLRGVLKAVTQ
Briefly: cross-linking.

Assay [8] addresses T2, SMG-1, full length, SBP-tagged. Briefly: cross-linking.

B1: UPF2 (121–1227) (domain or fragment)
chain: MKEKEESIQLHQEAWERHHLRKELRSKNQNAPDSRPEENFFSRLDSSLKKNTAFVKKLKTITEQQRDSLSHDFNGLNLSKYIAEAVASIVEAKLKISDVNCAVHLCSLFHQRYADFAPSLLQVWKKHFEARKEEKTPNITKLRTDLRFIAELTIVGIFTDKEGLSLIYEQLKNIINADRESHTHVSVVISFCRHCGDDIAGLVPRKVKSAAEKFNLSFPPSEIISPEKQQPFQNLLKEYFTSLTKHLKRDHRELQNTERQNRRILHSKGELSEDRHKQYEEFAMSYQKLLANSQSLADLLDENMPDLPQDKPTPEEHGPGIDIFTPGKPGEYDLEGGIWEDEDARNFYENLIDLKAFVPAILFKDNEKSCQNKESNKDDTKEAKESKENKEVSSPDDLELELENLEINDDTLELEGGDEAEDLTKKLLDEQEQEDEEASTGSHLKLIVDAFLQQLPNCVNRDLIDKAAMDFCMNMNTKANRKKLVRALFIVPRQRLDLLPFYARLVATLHPCMSDVAEDLCSMLRGDFRFHVRKKDQINIETKNKTVRFIGELTKFKMFTKNDTLHCLKMLLSDFSHHHIEMACTLLETCGRFLFRSPESHLRTSVLLEQMMRKKQAMHLDARYVTMVENAYYYCNPPPAEKTVKKKRPPLQEYVRKLLYKDLSKVTTEKVLRQMRKLPWQDQEVKDYVICCMINIWNVKYNSIHCVANLLAGLVLYQEDVGIHVVDGVLEDIRLGMEVNQPKFNQRRISSAKFLGELYNYRMVESAVIFRTLYSFTSFGVNPDGSPSSLDPPEHLFRIRLVCTILDTCGQYFDRGSSKRKLDCFLVYFQRYVWWKKSLEVWTKDHPFPIDIDYMISDTLELLRPKIKLCNSLEESIRQVQDLEREFLIKLGLVNDKDSKDSMTEGENLEEDEEEEEGGAETEEQSGNESEVNEPEEEEGSDNDDDEGEEEEEENTDYLTDSNKENETDEENTEVMIKGGGLKHVPCVEDEDFIQALDKMMLENLQQRSGESVKVHQLDVAIPLHLKSQLRKGPPLGGGEGEAESADTMPFVMLTRKGNKQQFKILNVPMSSQLAANHWNQQQAEQEERMRMKKLTLDINERQEQED
Turning to B1, in assay [1], the binding result is given as “binds”.

B2: UPF1, full length, fluorescently labeled with NT-547 (natural protein)
chain: MSVEAYGPSSQTLTFLDTEEAELLGADTQGSEFEFTDFTLPSQTQTPPGGPGGPGGGGAGGPGGAGAGAAAGQLDAQVGPEGILQNGAVDDSVAKTSQLLAELNFEEDEEDTYYTKDLPIHACSYCGIHDPACVVYCNTSKKWFCNGRGNTSGSHIVNHLVRAKCKEVTLHKDGPLGETVLECYNCGCRNVFLLGFIPAKADSVVVLLCRQPCASQSSLKDINWDSSQWQPLIQDRCFLSWLVKIPSEQEQLRARQITAQQINKLEELWKENPSATLEDLEKPGVDEEPQHVLLRYEDAYQYQNIFGPLVKLEADYDKKLKESQTQDNITVRWDLGLNKKRIAYFTLPKTDSGNEDLVIIWLRDMRLMQGDEICLRYKGDLAPLWKGIGHVIKVPDNYGDEIAIELRSSVGAPVEVTHNFQVDFVWKSTSFDRMQSALKTFAVDETSVSGYIYHKLLGHEVEDVIIKCQLPKRFTAQGLPDLNHSQVYAVKTVLQRPLSLIQGPPGTGKTVTSATIVYHLARQGNGPVLVCAPSNIAVDQLTEKIHQTGLKVVRLCAKSREAIDSPVSFLALHNQIRNMDSMPELQKLQQLKDETGELSSADEKRYRALKRTAERELLMNADVICCTCVGAGDPRLAKMQFRSILIDESTQATEPECMVPVVLGAKQLILVGDHCQLGPVVMCKKAAKAGLSQSLFERLVVLGIRPIRLQVQYRMHPALSAFPSNIFYEGSLQNGVTAADRVKKGFDFQWPQPDKPMFFYVTQGQEEIASSGTSYLNRTEAANVEKITTKLLKAGAKPDQIGIITPYEGQRSYLVQYMQFSGSLHTKLYQEVEIASVDAFQGREKDFIILSCVRANEHQGIGFLNDPRRLNVALTRARYGVIIVGNPKALSKQPLWNHLLNYYKEQKVLVEGPLNNLRESLMQFSKPRKLVNTINPGARFMTTAMYDAREAIIPGSVYDRSSQGRPSSMYFQTHDQIGMISAGPSHVAAMNIPIPFNLVMPPMPPPGYFGQANGPAAGRGTPKGKTGRGGRQKNRFGLPGPSQTNLPNSQASQDVASQPFSQGALTQGYISMSQPSQMSQPGLSQPELSQDSYLGDEFKSQIDVALSQDSTYQGERAYQHGGVTGLSQY
modifications: NT-547 dye on amines, on average one fluorescent moiety per UPF1 molecule
In the case of B2, the Kd in assay [2] came out at 56 nM; in assay [3] it was 38 nM; in assay [4], 75 nM; in assay [5] it was 221 nM.

B3: SMG-9 (natural protein)
chain: MSESGHSQPGLYGIERRRRWKEPGSGGPQNLSGPGGRERDYIAPWERERRDASEETSTSVMQKTPIILSKPPAERSKQPPPPTAPAAPPAPAPLEKPIVLMKPREEGKGPVAVTGASTPEGTAPPPPAAPAPPKGEKEGQRPTQPVYQIQNRGMGTAAPAAMDPVVGQAKLLPPERMKHSIKLVDDQMNWCDSAIEYLLDQTDVLVVGVLGLQGTGKSMVMSLLSANTPEEDQRTYVFRAQSAEMKERGGNQTSGIDFFITQERIVFLDTQPILSPSILDHLINNDRKLPPEYNLPHTYVEMQSLQIAAFLFTVCHVVIVVQDWFTDLSLYRFLQTAEMVKPSTPSPSHESSSSSGSDEGTEYYPHLVFLQNKARREDFCPRKLRQMHLMIDQLMAHSHLRYKGTLSMLQCNVFPGLPPDFLDSEVNLFLVPFMDSEAESENPPRAGPGSSPLFSLLPGYRGHPSFQSLVSKLRSQVMSMARPQLSHTILTEKNWFHYAARIWDGVRKSSALAEYSRLLA
As to B3, the binding result in assay [6], in assay [7] and in assay [8] was “binds” throughout.
